In patent US20140303084A1 (Biogen, published 2014):
Square brackets hold non-standard residues; d marks the D form. Primed or numbered codes have the meaning given here. Side chains are listed from the residue outwards. Ends that are not written are not given here. * marks the point of attachment. Biotin = O=C1N[C@H]2[C@H](CS[C@H]2CCCCC(=O)*)N1; PEG2(3) = PEG2 spacer carrying biotin on Lys; Pra = C#CC[C@H](N)C(=O)O; PEG4′ = PEG4 spacer

B1: SKQGRPISPDrRAAGKLTCLASYCWLFWTGI (peptide)
peptide: SKQGRPISPD[dR]RAAGKLTCLASYCWLFWTGI
modifications: not fully specified; printed as SKQGRPISPDrRAAGKLTCLASYCWLFWTGI; cysteine pairing not given here
B2: Pra-PEG4-PRIrTVGPGSrSASGKSTCLASYCWLFWTGIA (peptide)
peptide: [Pra][PEG4′]PRI[dR]TVGPGS[dR]SASGKSTCLASYCWLFWTGIA
modifications: not fully specified (C-terminus); printed as Pra-PEG4-PRIrTVGPGSrSASGKSTCLASYCWLFWTGIA; cysteine pairing not given here
B3: SRIrTVSPGSrSASGKSTCLASYCWLFWTGIA (peptide)
peptide: SRI[dR]TVSPGS[dR]SASGKSTCLASYCWLFWTGIA
modifications: not fully specified; printed as SRIrTVSPGSrSASGKSTCLASYCWLFWTGIA; cysteine pairing not given here

target: human Factor IXa (human, UniProt P00740 47-191; P00740 227-461); assay: cell-based or functional assay

B1 and PRIRTVGPGSRSASGKSTCLASYCWLFWTGIAX (not fully specified; D-Arg 4, D-Arg 11, C-terminal PEG4-Pra) [PRIrTVGPGSrSASGKSTCLASYCWLFWTGIA-PEG4-Pra] cannot be ordered by “EC50 [µM], FXa generation assay” value: < 0.5 µM for the first, < 0.5 µM for the second.

First: B2
Second: PRIRTVGPGSRSASGKLTCLASYCWLFWTGI
The “EC50 [µM], FXa generation assay” value of the first is higher: > 1 µM for the first, < 0.5 µM for the second.

PSIRTVGPGSRSASGKLTCLASYCWLFWTGIA (not fully specified; cysteine pairing not given here) and PRSRTVGPGSRSASGKSTCLASYCWLFWTGIA cannot be ordered by “EC50 [µM], FXa generation assay” value: < 0.5 µM for the first, < 0.5 µM for the second.

First: PRIRTVGPSSRSASGKLTCLASYCWLFWTGIA
Second: PRIRTVGPGSRSASGKLTCLASYCWLAWTGIA
The “EC50 [µM], FXa generation assay” value of the first is lower: < 0.5 µM for the first, > 1 µM for the second.

First: PRIRTVGPGSRSASGKLTCLASYCWLFWTSIA
Second: PRIRTVGPGSRSASGKLTCLASACWLFWTGIA
The “EC50 [µM], FXa generation assay” value of the first is lower: < 0.5 µM for the first, > 1 µM for the second.

PRISTVGPGSRSASGKLTCLASYCWLFWTGIA and PRIRTVGPGSRSASGKLSCLASYCWLFWTGIA cannot be ordered by “EC50 [µM], FXa generation assay” value: < 0.5 µM for the first, < 0.5 µM for the second.

Compared with PRIRTVGPGSRSASGKLTCLASYCWLFLTGIA, PRIRTVGPGSRSASGKLTCFASYCWLFWTGIA is higher in “EC50 [µM], FXa generation assay” value: < 0.5 µM for the first, > 1 µM for the second.

Compared with PRIRTVGPGSRSASGKSTCLASYCWLFWTGIA, PRIRTVGPGSRSASGKLTCSASYCWLFWTGIA is higher in “EC50 [µM], FXa generation assay” value: < 0.5 µM for the first, > 1 µM for the second.

PRIRTVSPGSRSASGKLTCLASYCWLFWTGIA and PRIRTSGPGSRSASGKLTCLASYCWLFWTGIA cannot be ordered by “EC50 [µM], FXa generation assay” value: < 0.5 µM for the first, < 0.5 µM for the second.

PRSRTVGPGSRSASGKLTCLASYCWLFWTGIA and PRIRTVGPGSRSASGKLTCLASYCWLFWSGIA cannot be ordered by “EC50 [µM], FXa generation assay” value: < 0.5 µM for the first, < 0.5 µM for the second.

First: PRIRTVGSGSRSASGKLTCLASYCWLFWTGIA
Second: PRIRTVGPGSRSASGKLTCVASYCWLFWTGIA
The “EC50 [µM], FXa generation assay” value of the first is lower: < 0.5 µM for the first, > 1 µM for the second.

PRIRTVGPGSRSASGKLTCLASYCWLFWTFIA and PRIRTVGPGSRSASGKLTCLASYCWLFFTGIA cannot be ordered by “EC50 [µM], FXa generation assay” value: < 0.5 µM for the first, < 0.5 µM for the second.

Compared with PRIRTVGPGSRSASGKLTCAASYCWLFWTGIA, SRIRTVSPGSRSASGKSTCLASYCWLFWTGIA is lower in “EC50 [µM], FXa generation assay” value: > 1 µM for the first, < 0.5 µM for the second.

PRIRSVGPGSRSASGKLTCLASYCWLFWTGIA and PRIRTVGPGSRSASGKLTCLASYCWLFATGIA cannot be ordered by “EC50 [µM], FXa generation assay” value: < 0.5 µM for the first, < 0.5 µM for the second.

PRIRTVGPGSRRASGKLTCLASYCWLFWTGIA and PRIRTVSPGSRSASGKSTCLASYCWLFWTGIA cannot be ordered by “EC50 [µM], FXa generation assay” value: < 0.5 µM for the first, < 0.5 µM for the second.

PRIRTVGPGSRSASGKLTCLASYCWLLWTGIA and PRIRTVGPGSRSASGKLTCLASYCWLFWTLIA cannot be ordered by “EC50 [µM], FXa generation assay” value: < 0.5 µM for the first, < 0.5 µM for the second.

SRIRTVGPGSRSASGKSTCLASYCWLFWTGIA and GSVRRALFVAARAPAKLTCLASYCWLFWTGIA [GSVRRALFVA ARAPA KLTCLASYCWLFWTGIA] cannot be ordered by “EC50 [µM], FXa generation assay” value: < 0.5 µM for the first, < 0.5 µM for the second.

Compared with RRFVGGSLSQRRAPGKLTCLASYCWLFWTGIA [RRFVGGSLSQ RRAPG KLTCLASYCWLFWTGIA], B3 is higher in “EC50 [µM], FXa generation assay” value: < 0.5 µM for the first, > 1 µM for the second.

SRSRTVSPGSRSASGKSTCLASYCWLFWTGIA and PTDTGPVISGLRAPGKLTCLASYCWLFWTGIA [PTDTGPVISG LRAPG KLTCLASYCWLFWTGIA] cannot be ordered by “EC50 [µM], FXa generation assay” value: < 0.5 µM for the first, < 0.5 µM for the second.

In the case of SKQGRPISPDRRAAGKLTCLASYCWLFWTGIA[PEG2(3)]K([PEG2(3)-Biotin]) (cysteine pairing not given here) [SKQGRPISPDRRAAGKLTCLASYCWLFWTGIA-PEG2-K(PEG2-Biotin)], the “EC50 [µM], FXa generation assay” value is reported as > 1 µM.
